Measurements from publication PMC7431413 (2020).

B1: core fragment (CF) of STAT3, biotinylated (domain or fragment)
chain: GQANHPTAAVVTEKQQMLEQHLQDVRKRVQDLEQKMKVVENLQDDFDFNYKTLKSQGDMQDLNGNNQSVTRQKMQQLEQMLTALDQMRRSIVSELAGLLSAMEYVQKTLTDEELADWKRRQQIACIGGPPNICLDRLENWITSLAESQLQTRQQIKKLEELQQKVSYKGDPIVQHRPMLEERIVELFRNLMKSAFVVERQPCMPMHPDRPLVIKTGVQFTTKVRLLVKFPELNYQLKIKVCIDKDSGDVAALRGSRKFNILGTNTKVMNMEESNNGSLSAEFKHLTLREQRCGNGGRANCDASLIVTEELHLITFETEVYHQGLKIDLETHSLPVVVISNICQMPNAWASILWYNMLTNNPKNVNFFTKPPIGTWDQVAEVLSWQFSSTTKRGLSIEQLTTLAEKLLGPGVNYSGCQITWAKFCKENMAGKGFSFWVWLDNIIDLVKKYILALWNEGYIMGFISKERERAILSTKPPGTFLLRFSESSKEGGVTFTWVEKDISGKTQIQSVEPYTKQQLNNMSFAEIIMGYKIMDATNILVSPLVYLYPDIPKEEAFGKYCRPESQEHPEADPGSAAPYLKTKFICVTPTTCSNTI
modifications: biotin on the Avi-tag

Key:
Experiment in all cases: FACS; yeast display
MS3-1 = biological target: MS3-1
MS3-5 = biological target: MS3-5
MS3-7 = biological target: MS3-7
MS3-4 = biological target: MS3-4
MS3-2 = biological target: MS3-2
MS3-8 = biological target: MS3-8
MS3-N1 = biological target: MS3-N1
MS3-N7 = biological target: MS3-N7
MS3-N5 = biological target: MS3-N5
[1] = biological target: B1

Binder B1 has a Kd (MS3-1) of 0.127 µM, a Kd (MS3-5) of 0.088 µM and a Kd (MS3-7) of 0.135 µM. For the same binder, the Kd (MS3-4) was 0.018 µM, the Kd (MS3-2) was 0.104 µM and the Kd (MS3-8) was 0.235 µM.

B2: N-terminal domain of STAT3, biotinylated (domain or fragment)
chain: QWNQLQQLDTRYLEQLHQLYSDSFPMELRQFLAPWIESQDWAYAASKESHATLVFHNLLGEIDQQYSRFLQESNVLYQHNLRRIKQFLQSRYLEKPMEIARIVARCLWEESRLLQTAATAAQQGGQANHPTAAVVT
modifications: biotin on the Avi-tag
With B2 the Kd (MS3-N1) was 0.065 µM, the Kd (MS3-N7) was 0.038 µM and the Kd (MS3-N5) was 0.039 µM.

B3: monobody MS3-6, displayed on yeast cells (designed binder)
chain: VSSVPTKLEVVAATPTSLLISWDAPAVTVDFYHITYGETGGNSPVQEFTVPGSKSTATISGLKPGVDYTITVYAYVSYPEYYFPSPISINYRT
Binder B3 has a Kd [1] of 0.008 µM.
